T1: full-length human MMACHC (HsMMACHCFL) (human, UniProt Q9Y4U1 1-282)
T1 construct: human MMACHC, full length (C-terminal Pro-rich region is aa 236-282); source: E. coli BL21(DE3)R3, purified (Ni-Sepharose, Superdex 200)
T1 sequence (looked up): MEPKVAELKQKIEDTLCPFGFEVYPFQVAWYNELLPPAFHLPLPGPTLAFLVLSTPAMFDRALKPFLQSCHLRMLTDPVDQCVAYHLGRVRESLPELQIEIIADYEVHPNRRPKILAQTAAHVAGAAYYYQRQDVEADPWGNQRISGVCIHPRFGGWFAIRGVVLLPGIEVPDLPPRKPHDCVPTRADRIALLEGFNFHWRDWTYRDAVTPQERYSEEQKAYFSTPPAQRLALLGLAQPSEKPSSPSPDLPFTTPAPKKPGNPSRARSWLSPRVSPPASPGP

T2: full-length human MMACHC (HsMMACHCFL) (human), Q9Y4U1
T2 chain: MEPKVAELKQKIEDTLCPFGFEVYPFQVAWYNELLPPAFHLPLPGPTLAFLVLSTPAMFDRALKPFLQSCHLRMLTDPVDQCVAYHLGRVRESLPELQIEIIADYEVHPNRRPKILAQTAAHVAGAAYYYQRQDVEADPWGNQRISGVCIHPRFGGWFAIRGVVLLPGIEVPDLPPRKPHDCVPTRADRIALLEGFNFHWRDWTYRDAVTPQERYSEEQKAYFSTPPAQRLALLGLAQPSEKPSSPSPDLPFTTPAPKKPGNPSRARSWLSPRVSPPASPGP

T3: untagged HsMMACHCΔC (human, UniProt Q9Y4U1 1-235)
T3 construct: human MMACHC lacking the C-terminal Pro-rich region (aa 236-282); Form used for SAXS; not shown: His6, N-terminal, cleaved
T3 sequence (looked up): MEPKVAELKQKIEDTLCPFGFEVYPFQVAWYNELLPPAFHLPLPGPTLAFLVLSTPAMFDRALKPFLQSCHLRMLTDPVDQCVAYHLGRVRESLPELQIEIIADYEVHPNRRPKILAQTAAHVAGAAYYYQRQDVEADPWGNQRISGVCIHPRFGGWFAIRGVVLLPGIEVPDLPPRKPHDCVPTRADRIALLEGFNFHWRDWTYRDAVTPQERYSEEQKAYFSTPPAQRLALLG

T4: HsMMACHCΔC (human, UniProt Q9Y4U1 1-235)
T4 construct: human MMACHC lacking the C-terminal Pro-rich region (aa 236-282); Form used in BN-PAGE and size-exclusion chromatography; source: E. coli BL21(DE3)R3, purified (Ni-Sepharose, Superdex 200)
T4 sequence (looked up): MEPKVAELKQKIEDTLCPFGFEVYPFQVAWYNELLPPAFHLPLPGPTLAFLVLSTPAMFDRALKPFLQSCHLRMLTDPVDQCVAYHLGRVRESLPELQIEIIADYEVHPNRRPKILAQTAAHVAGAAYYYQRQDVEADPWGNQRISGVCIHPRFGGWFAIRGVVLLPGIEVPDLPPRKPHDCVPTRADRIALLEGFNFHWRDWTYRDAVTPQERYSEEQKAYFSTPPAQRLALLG


What was measured:
[1] = target: T1, full-length human MMACHC (HsMMACHCFL); test: native MS; about 4 mg/ml MMADHC and MMACHC incubated with 0.5 mM MeCbl and 2 mM reduced GSH, desalted into 50 mM ammonium acetate pH 6.5; Q-TOF, electrospray, positive ion mode; conditions: both partners purified
[2] = target: T1, full-length human MMACHC (HsMMACHCFL); test: native gel or EMSA; blue native-PAGE; 25 μM of each protein with 50 μM MeCbl and 8 mM GSH, preincubated in the dark at room temperature for 1 h; complex judged by an additional band; conditions: both partners purified
[3] = target: T2, full-length human MMACHC (HsMMACHCFL) …; test: native gel or EMSA; blue native-PAGE of single proteins, 25 μM; MMACHC alone and with MeCbl and GSH; MMADHC truncations alone; conditions: remark: other sources report otherwise
untagged HsMMACHCΔC = target: T3, untagged HsMMACHCΔC; test: SAXS; complex reconstituted from untagged proteins with MeCbl and GSH, purified by size-exclusion chromatography, 17 mg/ml; in-line HPLC column or batch mode; Diamond B21; conditions: both partners purified
HsMMACHCΔC = target: T4, HsMMACHCΔC; test: SEC; analytical size-exclusion chromatography of the two proteins with MeCbl and GSH; molecular weights from a calibration curve; conditions: both partners purified

Row | binding result [2] | Binder | further results
1 | binds | HsMMADHCΔ153 (domain or fragment, human, UniProt Q9H3L0 154-296, looked up, source: E. coli BL21(DE3)R3, purified (Ni-Sepharose, Superdex 200)) PELLRKDFESLFPEVANGKLMILTVTQKTKNDMTVWSEEVEIEREVLLEKFINGAKEICYALRAEGYWADFIDPSSGLAFFGPYTNNTLFETDERYRHLGFSVDDLGCCKVIRHSLWGTHVVVGSIFTNATPDSHIMKKLSGN | 
2 | binds | HsMMADHCΔ61 (domain or fragment, human, UniProt Q9H3L0 62-296, looked up, human MMADHC (296 aa) with N-terminal truncation Δ61; by analogy with MmMMADHCΔ128 = aa 129-296; source: E. coli BL21(DE3)R3, purified (Ni-Sepharose, Superdex 200)) MGPFGPQDQRFQLPGNIGFDCHLNGTASQKKSLVHKTLPDVLAEPLSSERHEFVMAQYVNEFQGNDAPVEQEINSAETYFESARVECAIQTCPELLRKDFESLFPEVANGKLMILTVTQKTKNDMTVWSEEVEIEREVLLEKFINGAKEICYALRAEGYWADFIDPSSGLAFFGPYTNNTLFETDERYRHLGFSVDDLGCCKVIRHSLWGTHVVVGSIFTNATPDSHIMKKLSGN | 

The remaining lines, values behind:

Row | Binder | binding result [2] | further results
3 | HsMMADHCΔ123 (domain or fragment, human, UniProt Q9H3L0 124-296, looked up, human MMADHC (296 aa) with N-terminal truncation Δ123; source: E. coli BL21(DE3)R3, purified (Ni-Sepharose, Superdex 200)) QGNDAPVEQEINSAETYFESARVECAIQTCPELLRKDFESLFPEVANGKLMILTVTQKTKNDMTVWSEEVEIEREVLLEKFINGAKEICYALRAEGYWADFIDPSSGLAFFGPYTNNTLFETDERYRHLGFSVDDLGCCKVIRHSLWGTHVVVGSIFTNATPDSHIMKKLSGN |  | stoichiometry N [1]: 1
4 | HsMMADHCΔ123-M186A (domain or fragment, human, UniProt Q9H3L0 124-296, looked up, human MMADHC Δ123 construct with p.M186A (stretch 1); also called p.M186A; source: E. coli BL21(DE3)R3, purified (Ni-Sepharose, Superdex 200)) QGNDAPVEQEINSAETYFESARVECAIQTCPELLRKDFESLFPEVANGKLMILTVTQKTKNDATVWSEEVEIEREVLLEKFINGAKEICYALRAEGYWADFIDPSSGLAFFGPYTNNTLFETDERYRHLGFSVDDLGCCKVIRHSLWGTHVVVGSIFTNATPDSHIMKKLSGN | binds | 
5 | HsMMADHCΔ123-L259P (domain or fragment, human, UniProt Q9H3L0 124-296, looked up, human MMADHC Δ123 construct with p.L259P (stretch 3); also called p.L259P; source: E. coli BL21(DE3)R3, purified (Ni-Sepharose, Superdex 200)) QGNDAPVEQEINSAETYFESARVECAIQTCPELLRKDFESLFPEVANGKLMILTVTQKTKNDMTVWSEEVEIEREVLLEKFINGAKEICYALRAEGYWADFIDPSSGLAFFGPYTNNTLFETDERYRHLGFSVDDPGCCKVIRHSLWGTHVVVGSIFTNATPDSHIMKKLSGN | binds | 
6 | HsMMADHCΔ123-D226A (domain or fragment, human, UniProt Q9H3L0 124-296, looked up, human MMADHC Δ123 construct with p.D226A (stretch 2); also called p.D226A; source: E. coli BL21(DE3)R3, purified (Ni-Sepharose, Superdex 200)) QGNDAPVEQEINSAETYFESARVECAIQTCPELLRKDFESLFPEVANGKLMILTVTQKTKNDMTVWSEEVEIEREVLLEKFINGAKEICYALRAEGYWADFIAPSSGLAFFGPYTNNTLFETDERYRHLGFSVDDLGCCKVIRHSLWGTHVVVGSIFTNATPDSHIMKKLSGN | binds | 
7 | full-length human MMACHC (HsMMACHCFL), Q9Y4U1 1-282 (natural protein) MEPKVAELKQKIEDTLCPFGFEVYPFQVAWYNELLPPAFHLPLPGPTLAFLVLSTPAMFDRALKPFLQSCHLRMLTDPVDQCVAYHLGRVRESLPELQIEIIADYEVHPNRRPKILAQTAAHVAGAAYYYQRQDVEADPWGNQRISGVCIHPRFGGWFAIRGVVLLPGIEVPDLPPRKPHDCVPTRADRIALLEGFNFHWRDWTYRDAVTPQERYSEEQKAYFSTPPAQRLALLGLAQPSEKPSSPSPDLPFTTPAPKKPGNPSRARSWLSPRVSPPASPGP |  | stoichiometry N [3]: 2
8 | untagged MmMMADHCΔ128 (domain or fragment, Mus musculus, UniProt Q99LS1 129-296, looked up, mouse MMADHC aa 129-296; Form used for SAXS; not shown: His6, N-terminal, cleaved) PVEQEINSAETYFESAKVECAIQTCPELLRRDFESLFPEVANSKLMILTVTQKTENDMTVWSEEVEVEREVLLEKFISGAKEICYALRAEGYWADFIDPSSGVAFFGPYTNNTLFETDERYRHLGFSVDDLGCCKVIRHSLWGTHVVVGSIFTNATADSSIMRKLSGN |  | stoichiometry N (untagged HsMMACHCΔC): 1
9 | MmMMADHCΔ128 (M. musculus MMADHC aa 129-296) (domain or fragment, Mus musculus, UniProt Q99LS1 129-296, looked up, Form used in BN-PAGE and size-exclusion chromatography; source: E. coli BL21(DE3)R3, purified (Ni-Sepharose, Superdex 200)) PVEQEINSAETYFESAKVECAIQTCPELLRRDFESLFPEVANSKLMILTVTQKTENDMTVWSEEVEVEREVLLEKFISGAKEICYALRAEGYWADFIDPSSGVAFFGPYTNNTLFETDERYRHLGFSVDDLGCCKVIRHSLWGTHVVVGSIFTNATADSSIMRKLSGN |  | stoichiometry N (HsMMACHCΔC): 1
